Results published in US20230250188A1 (NATIONAL UNIVERSITY CORPORATION KOCHI UNIVERSITY, published 2023).

T1: recombinant human GPC1 protein (R&D Systems) (human, UniProt P35052 24-530)
T1 construct: Bought recombinant protein (R&D Systems); also called human GPC-1 antigen; Glypican-1
T1 sequence: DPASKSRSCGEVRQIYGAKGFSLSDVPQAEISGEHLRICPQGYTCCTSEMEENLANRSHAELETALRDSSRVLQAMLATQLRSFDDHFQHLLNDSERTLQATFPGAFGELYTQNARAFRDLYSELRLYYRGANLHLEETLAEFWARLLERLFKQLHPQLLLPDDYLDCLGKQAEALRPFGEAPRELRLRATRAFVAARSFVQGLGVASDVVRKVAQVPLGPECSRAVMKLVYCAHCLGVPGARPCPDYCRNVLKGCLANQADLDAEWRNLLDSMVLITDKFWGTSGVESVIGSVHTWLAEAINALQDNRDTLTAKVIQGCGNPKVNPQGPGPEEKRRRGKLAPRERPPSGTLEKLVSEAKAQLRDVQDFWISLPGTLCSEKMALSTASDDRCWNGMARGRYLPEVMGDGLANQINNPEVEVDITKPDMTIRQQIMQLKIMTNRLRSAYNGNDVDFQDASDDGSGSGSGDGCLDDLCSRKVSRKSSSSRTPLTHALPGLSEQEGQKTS

T2: human GPC1 on the surface of GPC1-positive cancer cells (TE8, TE14, BxPC-3) (human, UniProt P35052 24-530)
T2 sequence: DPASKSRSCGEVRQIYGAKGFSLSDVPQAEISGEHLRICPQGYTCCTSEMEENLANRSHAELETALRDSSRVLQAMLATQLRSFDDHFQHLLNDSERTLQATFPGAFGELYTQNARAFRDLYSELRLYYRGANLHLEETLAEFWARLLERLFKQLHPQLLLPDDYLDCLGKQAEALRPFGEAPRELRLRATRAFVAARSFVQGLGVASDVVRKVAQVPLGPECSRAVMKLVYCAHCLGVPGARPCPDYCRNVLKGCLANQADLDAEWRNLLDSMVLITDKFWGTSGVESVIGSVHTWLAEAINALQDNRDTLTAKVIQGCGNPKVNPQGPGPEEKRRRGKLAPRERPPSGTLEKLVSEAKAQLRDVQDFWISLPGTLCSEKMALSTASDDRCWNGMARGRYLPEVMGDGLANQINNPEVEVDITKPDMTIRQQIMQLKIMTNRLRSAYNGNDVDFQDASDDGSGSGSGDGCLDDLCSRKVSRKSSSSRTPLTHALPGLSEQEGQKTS


Legend:
[1] = biological target: T1, recombinant human GPC1 protein (R&D …); test: SPR (Biacore 8K); antibody captured by anti-human IgG (Fc) on a CM5 chip, recombinant human GPC1 flowed over
Experimental: The mouse anti-human-GPC1 monoclonal antibody was humanized (subclass: IgG4), and the obtained twenty clones (T1, T2, T3, T7, T8, T10, T11, T22, T26, T28, T29, T31, T32, T33, T34, T36, T43, T56, T57, T59) were prepared. An anti-human IgG (Fc) was immobilized on an sCM5 sensor chip (GE Healthcare) using Human antibody capture kit (GE Healthcare), and the affinity of each of these clones to a recombinant human GPC1 protein (R&D Systems) was measured using Biacore (registered trademark) 8K (GE Healthcare).

[2] = biological target: T2, human GPC1 on the surface of …; test: cell-based or functional assay

Row | Binder | Kd [1] [nM] | koff [1] [s⁻¹] | kon [1] [M⁻¹ s⁻¹] | IC50 of cytotoxicity on TE14 cells (ATP cell viability, 144 h) with MMAF-linked anti-human-IgG Fab as secondary antibody [2] [nM]
1 | humanized anti-GPC1 monoclonal antibody clone T1 (antibody, human IgG4 S228P, kappa, V domains shown, IgG) VH: QVQLVQSGAEVKKPGASVKVSCKASGYTFTGYYMHWVRQAPGQGLEWMGEINPSTGDTTYNQKFKARVTMTRDTSTSTVYMELSSLRSEDTAVYYCAREKRDDGVFAYWGQGTLVTVSS VL: DIVMTQSPSFLSASVGDRVTITCRASQGISSYLVWYQQKPGKAPKLLIYSASVLQSGVPSRFSGRGYGTDFTLTISSLQPEDFATYYCQQSFSIPPVTFGGGTKVEIKR | 5.62 | 0.00134 | 238000 | 0.0399
2 | humanized anti-GPC1 monoclonal antibody clone T32 (antibody, human IgG4 S228P, kappa, V domains shown, IgG) VH: QVQLVQSGAEVKKPGASVKVSCKASGYTFTGYYMHWVRQAPGQGLEWMGEINPSTGDTTYNQKFKARVTMTRDTSTSTVYMELSSLRSEDTAVYYCAREKRDDGVFAYWGQGTLVTVSS VL: DVVMTQSPGTLSLSPGERATLSCSASQSVSSNLAWYQQKPGQAPRLLIYGTSSRATGVPARFSGSGSGTEFTLTISSLQSEDFAAYYCQQYNSWPLTFGGGTKVEIKR | 290 | 0.0603 | 208000 | 0.888
3 | humanized anti-GPC1 monoclonal antibody clone T22 (antibody, human IgG4 S228P, kappa, V domains shown, IgG) VH: QVQLVQSGAEVKKPGASVKVSCKASGYTFTGYYMHWVRQAPGQGLEWMGEINPSTGDTTYNQKFKARVTMTRDTSTSTVYMELSSLRSEDTAVYYCAREKRDDGVFAYWGQGTLVTVSS VL: AIQMTQSPASLSASLGDRITITCRTSQTVAGYLNWYQQTPGNAPKLLIYSASNLQSGVPSRFSGSGSGRDFSLTISSLQSEDSATYYCQHSYSTPYTFGQGTKVEIKR | 218 | 0.0506 | 232000 | 0.745
4 | humanized anti-GPC1 monoclonal antibody clone T3 (antibody, human IgG4 S228P, kappa, V domains shown, IgG) VH: QVQLVQSGAEVKKPGASVKVSCKASGYTFTGYYMHWVRQAPGQGLEWMGEINPSTGDTTYNQKFKARVTMTRDTSTSTVYMELSSLRSEDTAVYYCAREKRDDGVFAYWGQGTLVTVSS VL: DIVMTQSPSSVSASVGDRVSITCRASEHINGWLAWYQQIPGKAPRILISSASILQSGAPSRFSGSGFGTDFTLTISSVQPEDFATYYCQQAKSYPLTFGGGTKVEIKR | 3.11 | 0.000713 | 229000 | 0.0526
5 | humanized anti-GPC1 monoclonal antibody clone T33 (antibody, human IgG4 S228P, kappa, V domains shown, IgG) VH: QVQLVQSGAEVKKPGASVKVSCKASGYTFTGYYMHWVRQAPGQGLEWMGEINPSTGDTTYNQKFKARVTMTRDTSTSTVYMELSSLRSEDTAVYYCAREKRDDGVFAYWGQGTLVTVSS VL: DVVMTQSPATLSVPPGDRATLSCRASQSVSSRLAWYQQKPGQAPKLLIYGASTRATGIPARFSGSWSGTEFTLTVSSLQSEDSAVYYCQQYNDWPRYTFGQGTKLEIKR | 462 | 0.0738 | 160000 | 1.86
6 | humanized anti-GPC1 monoclonal antibody clone T26 (antibody, human IgG4 S228P, kappa, V domains shown) VH: QVQLVQSGAEVKKPGASVKVSCKASGYTFTGYYMHWVRQAPGQGLEWMGEINPSTGDTTYNQKFKARVTMTRDTSTSTVYMELSSLRSEDTAVYYCAREKRDDGVFAYWGQGTLVTVSS VL: DVVMTQSPSSLSASVGERVTITCRASQSISSYLNWYQQKPGKAPKLLIYAASSRATGIPHRYSGSGSGTVFTLTISRLEPEDFATYYCQQFHSYPITFGQGTRLEIKR | – | – | – | 0.803
7 | humanized anti-GPC1 monoclonal antibody clone T28 (antibody, human IgG4 S228P, kappa, V domains shown, IgG) VH: QVQLVQSGAEVKKPGASVKVSCKASGYTFTGYYMHWVRQAPGQGLEWMGEINPSTGDTTYNQKFKARVTMTRDTSTSTVYMELSSLRSEDTAVYYCAREKRDDGVFAYWGQGTLVTVSS VL: DIQMTQSPSSLSASLGEMVTITCRASESIHSYLNWYQQKPGKAPNLLIYDASNLESGVPSRFSGSGYGTDFTLTISSLQPEDFATYYCQQSYGPPITFGQGTRLEIKR | 21.7 | 0.00679 | 313000 | 0.153
8 | humanized anti-GPC1 monoclonal antibody clone T59 (antibody, human IgG4 S228P, kappa, V domains shown, IgG) VH: QVQLVQSGAEVKKPGASVKVSCKASGYTFTGYYMHWVRQAPGQGLEWMGEINPSTGDTTYNQKFKARVTMTRDTSTSTVYMELSSLRSEDTAVYYCAREKRDDGVFAYWGQGTLVTVSS VL: EIVMTQSPSSLSASVGDRVTITCQASQHISNKLNWYQQKPGKAPKLLIYDASNLETGVPSRFSGSGYGTDFTFTVSSLQPEDIATYYCQQYDNLPITFGQGTRLEIKR | 302 | 0.0593 | 197000 | 0.37
9 | humanized anti-GPC1 monoclonal antibody clone T43 (antibody, human IgG4 S228P, kappa, V domains shown, IgG) VH: QVQLVQSGAEVKKPGASVKVSCKASGYTFTGYYMHWVRQAPGQGLEWMGEINPSTGDTTYNQKFKARVTMTRDTSTSTVYMELSSLRSEDTAVYYCAREKRDDGVFAYWGQGTLVTVSS VL: DIVMTQSPSSLSASVGDRVTITCRASQGIRSALAWYQQKPGKAPKLLIYDASNLQSGVPSRFSGSGSGTDFTLTISDVQAEDFGTYYCQQSFGPPRTFGQGTRLEIKR | 62.4 | 0.0106 | 169000 | 0.37
10 | humanized anti-GPC1 monoclonal antibody clone T11 (antibody, human IgG4 S228P, kappa, V domains shown, IgG) VH: QVQLVQSGAEVKKPGASVKVSCKASGYTFTGYYMHWVRQAPGQGLEWMGEINPSTGDTTYNQKFKARVTMTRDTSTSTVYMELSSLRSEDTAVYYCAREKRDDGVFAYWGQGTLVTVSS VL: AIRMTQSPSSLSASVGDRVTITCRASRSISTYLHWYQQKAGKAPKLLIYSAYNLQSGVPSRFSGSGSGTDFTLTISSLQPEDFATYYCQQSYSTPYTFGQGTKVEIKR | 272 | 0.0506 | 186000 | 0.121
11 | humanized anti-GPC1 monoclonal antibody clone T7 (antibody, human IgG4 S228P, kappa, V domains shown, IgG) VH: QVQLVQSGAEVKKPGASVKVSCKASGYTFTGYYMHWVRQAPGQGLEWMGEINPSTGDTTYNQKFKARVTMTRDTSTSTVYMELSSLRSEDTAVYYCAREKRDDGVFAYWGQGTLVTVSS VL: AIQLTQSPSTLSASVGDRVTITCRASQSISSWLAWYQQKPGKAPKLLISDASNLASGVPLRFSGSGFGTHFTLTIDNLQPEDIATYSCQQYNNYPFTFGLGTKLEIKR | 12 | 0.00411 | 343000 | 0.0365
12 | humanized anti-GPC1 monoclonal antibody clone T29 (antibody, human IgG4 S228P, kappa, V domains shown, IgG) VH: QVQLVQSGAEVKKPGASVKVSCKASGYTFTGYYMHWVRQAPGQGLEWMGEINPSTGDTTYNQKFKARVTMTRDTSTSTVYMELSSLRSEDTAVYYCAREKRDDGVFAYWGQGTLVTVSS VL: DIVMTQSPSSLSASVGDRVTITCRASQDISSYLNWYQQKPGEAPKLLVYGASNLQRGVPPGFRGSGSGTDFTLTINNLQPEDFATYYCQQSSTSPITFGQGTRLEIKR | 324 | 0.0664 | 205000 | 2.18
13 | humanized anti-GPC1 monoclonal antibody clone T31 (antibody, human IgG4 S228P, kappa, V domains shown, IgG) VH: QVQLVQSGAEVKKPGASVKVSCKASGYTFTGYYMHWVRQAPGQGLEWMGEINPSTGDTTYNQKFKARVTMTRDTSTSTVYMELSSLRSEDTAVYYCAREKRDDGVFAYWGQGTLVTVSS VL: AIQMTQSPATLSLSPGQRATLSCRASQSVSNYLAWYQQKPGQAPRLLIYDVSNRASGIPARFSGSGSGTDFTLTISSLEPEDFAIYYCQQRSNWPLTFGQGTKVDIKR | 271 | 0.0539 | 198000 | 0.688
14 | humanized anti-GPC1 monoclonal antibody clone T10 (antibody, human IgG4 S228P, kappa, V domains shown, IgG) VH: QVQLVQSGAEVKKPGASVKVSCKASGYTFTGYYMHWVRQAPGQGLEWMGEINPSTGDTTYNQKFKARVTMTRDTSTSTVYMELSSLRSEDTAVYYCAREKRDDGVFAYWGQGTLVTVSS VL: EIVLTQSPSTLSASVGDRVTITCRASQSISSWLAWYQQIPGKAPRILISSASILQSGAPSRFSGSGFGTDFTLTISSVQPEDFATYYCQQAKSYPLTFGGGTKLEIKR | 7.55 | 0.0015 | 199000 | 0.0488
15 | humanized anti-GPC1 monoclonal antibody clone T34 (antibody, human IgG4 S228P, kappa, V domains shown, IgG) VH: QVQLVQSGAEVKKPGASVKVSCKASGYTFTGYYMHWVRQAPGQGLEWMGEINPSTGDTTYNQKFKARVTMTRDTSTSTVYMELSSLRSEDTAVYYCAREKRDDGVFAYWGQGTLVTVSS VL: VIWMTQSPSSVSASVGDRVTITCRASQAINGWLAWYQQKPGKAPRILIYSASTLQTGAPSRFSGSGFGTDFTLTISSVQPEDFATYYCQQAKSYPLTFGGGTKVEIKR | 22.8 | 0.00393 | 172000 | 0.0501
